For 1 molecule, Kd results are on record in PMC4999211, “Amlexanox Blocks the Interaction between S100A4 and Epidermal Growth Factor and Inhibits Cell Proliferation” (PLoS ONE, 2016).

For this assay, the target named is T1, mutant S100A4 (C3S, C76S, C81S, C86S) (human, UniProt P26447 1-101, C3S | C76S | C81S | C86S).
T1 construct: human S100A4 with all four cysteines mutated to serines; residue numbers 1-101 in the HSQC bar graph; 15N-labelled where it was the observed protein in HSQC; No tag is named; also called mS100A4; quadruple mutant S100A4; source: E. coli BL21 (DE3), pET21b, purified (ammonium sulfate, Hi-Prep Q XL, Hi-Prep Phenyl FF, Superdex 75)
The assay can be described thus: other fluorescence titration; intrinsic tryptophan fluorescence of EGF (8 uM), excitation 295 nm, emission at 345 nm; mS100A4 added at 0-22 uM; double-reciprocal plot, one-site binding model. The note with it: both partners purified.

T1 sequence (P26447 whole entry C3S/C76S/C81S/C86S, one chain of several): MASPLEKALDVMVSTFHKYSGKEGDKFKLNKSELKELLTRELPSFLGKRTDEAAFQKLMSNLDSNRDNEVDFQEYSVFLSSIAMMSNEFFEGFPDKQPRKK

B1: human epidermal growth factor (ligand, UniProt P01133 971-1023, looked up)
chain: NSDSECPLSHDGYCLHDGVCMYIEALDKYACNCVVGYIGERCQYRDLKWWELR
notes: human epidermal growth factor, the mature hormone cut from pro-EGF; three disulfide bonds; 15N-labelled where it was the observed protein in HSQC; also called EGF; recombinant EGF
As a reminder, the Kd is the free concentration of one partner at which half of the binding sites on the other are occupied at equilibrium, for simple one-to-one binding. A high value points to weaker binding. B1 had a Kd of 5.2 µM.
